# Measurements from US20080182978A1, “ANTI-NGF ANTIBODIES AND METHODS USING SAME” (RINAT NEUROSCIENCE CORP, priority 2002, published 2008).
# Molecular target: human NGF (Homo sapiens, UniProt P01138)
# Assay: BIAcore screening assay of Fab library clones (koff)
# Format: binding
# Conditions: Table 3: heavy chain library clones paired with 6D5 light chain
# Procedure: Small scale expression in 96 wells plates was optimized for screening Fab libraries. Starting from E. coli transformed with a Fab library, colonies were picked to inoculate both a master plate (agar LB+Ampicillin (50 μg/ml)+2% Glucose) and a working plate (2 ml/well, 96 well/plate containing 1.5 mL of LB+Ampicillin (50 μg/ml)+2% Glucose). Both plates were grown at 30° C. for 8-12 hours. The master plate was stored at 4° C. and the cells from the working plate were pelleted at 5000 rpm and resuspended with 1 mL of LB+Ampicillin (50 μg/ml)+1 mM IPTG to induce expression of Fabs. Cells were harvested by centrifugation after 5 h expression time at 30° C., then resuspended in 500 μL of buffer HBS-EP ([…] buffer pH 7.4, 150 mM NaCl, 0.005% P20, 3 mM EDTA). Lysis of HBS-EP resuspended cells was attained by one cycle of freezing (−80° C.) then thawing at 37° C. Cell lysates were centrifuged at 5000 rpm for 30 min to separate cell debris from supernatants containing Fabs. The supernatants were then injected into the BIAcore plasmon resonance apparatus to obtain affinity information for each Fab. Clones expressing Fabs were rescued from the master plate to sequence the DNA and for large scale Fab production and detailed characterization as described below.
# Affinities of anti-NGF Fabs and monoclonal antibodies were determined using the BIAcore300™ surface plasmon resonance (SPR) system (BIAcore, INC, Piscaway N.J.). CM5 chips were activated with N-ethyl-N′-(3-dimethylaminopropyl)-carbodimide hydrochloride (EDC) and N-hydroxysuccinimide (NHS) according to the supplier's instructions. Human NGF was diluted into 10 mM sodium acetate pH 4.0 and injected over the activated chip at a concentration of 0.005 mg/mL. Using variable flow time across the individual chip channels, two ranges of antigen density were achieved: 100-200 response units (RU) for detailed kinetic studies and 500-600 RU for screening assays. The chip was blocked with ethanolamine. […] HBS-EP buffer (0.01M HEPES, pH 7.4, 0.15 NaCl, 3 mM EDTA, 0.005% Surfactant […]) was used as running buffer for all the BIAcore assays.
# A screening BIAcore assay was optimized to determine the affinity of Fab clones from libraries. Supernatants of small culture lysates were injected at 50 μl/min for 2 min. Dissociation times of 10 to 15 minutes were used for determination of a single exponential dissociation rate (koff) using BIAevaluation software. […] Clones showing improved (slower) koff values were expressed at large scale and full kinetic parameters, kon and koff, were determined on purified protein. The assay was capable of detecting differences in affinity that were approximately 2-fold or larger.
# For affinity screening experiments, each library was further paired with the corresponding CDR-grafted light or heavy chain (for example, the H1/H2 library was paired with CDR-grafted light chain), the antibody was expressed, and affinity to human NGF of the individual clones was screened using the BIACORE surface plasmon resonance (SPR) system (BIAcore, Inc. Piscataway, N.J.) according to the manufacturer's instructions and as described above. koff, kon and KD were determined. Antibody clones were ranked based on koff rates, since generally most variation in affinity is seen in koff rates, and further because koff rates are independent of antibody concentration.
# 20-80 clones from each small library were screened using BIAcore analysis as described herein. Samples were simultaneously analyzed by BIAcore for binding affinity to NGF in one channel of the BIAcore chip and for presence of Fab by binding to a penta-histag antibody in another channel of the sensor chip, to detect the his tag at the C terminus of the heavy chain. Clones that expressed protein were classified as having the same affinity, worse affinity, better affinity or no binding, using koff to classify: The results of this analysis are shown in Table 5.
# Sequence of human NGF (P01138 122-241): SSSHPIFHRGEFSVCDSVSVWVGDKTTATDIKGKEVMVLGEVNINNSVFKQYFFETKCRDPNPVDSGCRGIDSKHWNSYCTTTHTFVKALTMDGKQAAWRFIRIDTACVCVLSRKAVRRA
row,Molecule,koff
1,"H17: heavy chain library clone, CDRH1 SEQ ID NO:42, CDRH2 SEQ ID NO:43 (antibody, V domains shown) VH: QVQLQESGPGLVKPSETLSLTCTVSGFSLIGYDASWIRQPPGKGLEWIGGIWGDGTTDYNSSVKSRVTISKDTSKNQFSLKLSSVTAADTAVYYCARGGYYYGTSYYFDYWGQGTLVTVS VL: DIQMTQSPSSLSASVGDRVTITCRASQDISNHLNWYQQKPGKAPKLLIYYISRFHSGVPSRFSGSGSGTDFTFTISSLQPEDIATYYCQQSKTLPYTFGQGTKLEIKRT",0.00061 s⁻¹
2,"H18: heavy chain library clone, CDRH1 SEQ ID NO:36, CDRH2 SEQ ID NO:37 (antibody, V domains shown) VH: QVQLQESGPGLVKPSETLSLTCTVSGFSLIGYDATWIRQPPGKGLEWIGGIWGDGTTDYNSAVKSRVTISKDTSKNQFSLKLSSVTAADTAVYYCARGGYYYGTSYYFDYWGQGTLVTVS VL: DIQMTQSPSSLSASVGDRVTITCRASQDISNHLNWYQQKPGKAPKLLIYYISRFHSGVPSRFSGSGSGTDFTFTISSLQPEDIATYYCQQSKTLPYTFGQGTKLEIKRT",0.00042 s⁻¹
3,"H28: heavy chain library clone, CDRH1 SEQ ID NO:44, CDRH2 SEQ ID NO:45 (antibody, V domains shown) VH: QVQLQESGPGLVKPSETLSLTCTVSGFSLIGYDSTWIRQPPGKGLEWIGSIWGDGTTDYNSALKSRVTISKDTSKNQFSLKLSSVTAADTAVYYCARGGYYYGTSYYFDYWGQGTLVTVS VL: DIQMTQSPSSLSASVGDRVTITCRASQDISNHLNWYQQKPGKAPKLLIYYISRFHSGVPSRFSGSGSGTDFTFTISSLQPEDIATYYCQQSKTLPYTFGQGTKLEIKRT",0.00075 s⁻¹

# Second part, the molecule after the results:
row,koff,Molecule
1,0.00038 s⁻¹,"H222: heavy chain library clone, CDRH1 SEQ ID NO:32, CDRH2 SEQ ID NO:33 (antibody, V domains shown) VH: QVQLQESGPGLVKPSETLSLTCTVSGFSLIGYDVTWIRQPPGKGLEWIGGIWGDGTTDYNSAVKSRVTISKDTSKNQFSLKLSSVTAADTAVYYCARGGYYYGTSYYFDYWGQGTLVTVS VL: DIQMTQSPSSLSASVGDRVTITCRASQDISNHLNWYQQKPGKAPKLLIYYISRFHSGVPSRFSGSGSGTDFTFTISSLQPEDIATYYCQQSKTLPYTFGQGTKLEIKRT"
2,0.00038 s⁻¹,"H225: heavy chain library clone, CDRH1 SEQ ID NO:34, CDRH2 SEQ ID NO:35 (antibody, V domains shown) VH: QVQLQESGPGLVKPSETLSLTCTVSGFSLIGYDVTWIRQPPGKGLEWIGGIWGDGTTDYNSSVKSRVTISKDTSKNQFSLKLSSVTAADTAVYYCARGGYYYGTSYYFDYWGQGTLVTVS VL: DIQMTQSPSSLSASVGDRVTITCRASQDISNHLNWYQQKPGKAPKLLIYYISRFHSGVPSRFSGSGSGTDFTFTISSLQPEDIATYYCQQSKTLPYTFGQGTKLEIKRT"
3,0.00054 s⁻¹,"H227: heavy chain library clone, CDRH1 SEQ ID NO:40, CDRH2 SEQ ID NO:41 (antibody, V domains shown) VH: QVQLQESGPGLVKPSETLSLTCTVSGFSLIGYDISWIRQPPGKGLEWIGQIWGDGTTDYNSSVKSRVTISKDTSKNQFSLKLSSVTAADTAVYYCARGGYYYGTSYYFDYWGQGTLVTVS VL: DIQMTQSPSSLSASVGDRVTITCRASQDISNHLNWYQQKPGKAPKLLIYYISRFHSGVPSRFSGSGSGTDFTFTISSLQPEDIATYYCQQSKTLPYTFGQGTKLEIKRT"

# Same assay, conditions: Table 3: heavy chain library clones; KD calculated using kon 4e4 M^−1s^−1
row,Kd,Molecule
1,15.2 nM,"H17: heavy chain library clone, CDRH1 SEQ ID NO:42, CDRH2 SEQ ID NO:43 (antibody, V domains shown) VH: QVQLQESGPGLVKPSETLSLTCTVSGFSLIGYDASWIRQPPGKGLEWIGGIWGDGTTDYNSSVKSRVTISKDTSKNQFSLKLSSVTAADTAVYYCARGGYYYGTSYYFDYWGQGTLVTVS VL: DIQMTQSPSSLSASVGDRVTITCRASQDISNHLNWYQQKPGKAPKLLIYYISRFHSGVPSRFSGSGSGTDFTFTISSLQPEDIATYYCQQSKTLPYTFGQGTKLEIKRT"

# Same assay, conditions: Table 6: single CDR H3 or L3 mutation in 8L2-6D5 template
row,Molecule,koff
1,"T104S: 8L2-6D5 template with CDR H3 mutation T104S (antibody, V domains shown) VH: QVQLQESGPGLVKPSETLSLTCTVSGFSLIGYDINWIRQPPGKGLEWIGMIWGDGTTDYNSALKSRVTISKDTSKNQFSLKLSSVTAADTAVYYCARGGYYYGSSYYFDYWGQGTLVTVS VL: DIQMTQSPSSLSASVGDRVTITCRASQDISNHLNWYQQKPGKAPKLLIYYISRFHSGVPSRFSGSGSGTDFTFTISSLQPEDIATYYCQQSKTLPYTFGQGTKLEIKRT",0.0022 s⁻¹
2,"Y106M: 8L2-6D5 template with CDR H3 mutation Y106M (antibody, V domains shown) VH: QVQLQESGPGLVKPSETLSLTCTVSGFSLIGYDINWIRQPPGKGLEWIGMIWGDGTTDYNSALKSRVTISKDTSKNQFSLKLSSVTAADTAVYYCARGGYYYGTSMYFDYWGQGTLVTVS VL: DIQMTQSPSSLSASVGDRVTITCRASQDISNHLNWYQQKPGKAPKLLIYYISRFHSGVPSRFSGSGSGTDFTFTISSLQPEDIATYYCQQSKTLPYTFGQGTKLEIKRT",0.0027 s⁻¹
3,"Y100L: 8L2-6D5 template with CDR H3 mutation Y100L (antibody, V domains shown) VH: QVQLQESGPGLVKPSETLSLTCTVSGFSLIGYDINWIRQPPGKGLEWIGMIWGDGTTDYNSALKSRVTISKDTSKNQFSLKLSSVTAADTAVYYCARGGLYYGTSYYFDYWGQGTLVTVS VL: DIQMTQSPSSLSASVGDRVTITCRASQDISNHLNWYQQKPGKAPKLLIYYISRFHSGVPSRFSGSGSGTDFTFTISSLQPEDIATYYCQQSKTLPYTFGQGTKLEIKRT",0.0012 s⁻¹
4,"Y100R: 8L2-6D5 template with CDR H3 mutation Y100R (antibody, V domains shown) VH: QVQLQESGPGLVKPSETLSLTCTVSGFSLIGYDINWIRQPPGKGLEWIGMIWGDGTTDYNSALKSRVTISKDTSKNQFSLKLSSVTAADTAVYYCARGGRYYGTSYYFDYWGQGTLVTVS VL: DIQMTQSPSSLSASVGDRVTITCRASQDISNHLNWYQQKPGKAPKLLIYYISRFHSGVPSRFSGSGSGTDFTFTISSLQPEDIATYYCQQSKTLPYTFGQGTKLEIKRT",0.0011 s⁻¹

# More lines, now with the values ahead:
row,koff,Molecule
1,0.002 s⁻¹,"Y106T: 8L2-6D5 template with CDR H3 mutation Y106T (antibody, V domains shown) VH: QVQLQESGPGLVKPSETLSLTCTVSGFSLIGYDINWIRQPPGKGLEWIGMIWGDGTTDYNSALKSRVTISKDTSKNQFSLKLSSVTAADTAVYYCARGGYYYGTSTYFDYWGQGTLVTVS VL: DIQMTQSPSSLSASVGDRVTITCRASQDISNHLNWYQQKPGKAPKLLIYYISRFHSGVPSRFSGSGSGTDFTFTISSLQPEDIATYYCQQSKTLPYTFGQGTKLEIKRT"
2,0.0014 s⁻¹,"Y107F: 8L2-6D5 template with CDR H3 mutation Y107F (antibody, V domains shown) VH: QVQLQESGPGLVKPSETLSLTCTVSGFSLIGYDINWIRQPPGKGLEWIGMIWGDGTTDYNSALKSRVTISKDTSKNQFSLKLSSVTAADTAVYYCARGGYYYGTSYFFDYWGQGTLVTVS VL: DIQMTQSPSSLSASVGDRVTITCRASQDISNHLNWYQQKPGKAPKLLIYYISRFHSGVPSRFSGSGSGTDFTFTISSLQPEDIATYYCQQSKTLPYTFGQGTKLEIKRT"
3,0.0016 s⁻¹,"Y106R: 8L2-6D5 template with CDR H3 mutation Y106R (antibody, V domains shown) VH: QVQLQESGPGLVKPSETLSLTCTVSGFSLIGYDINWIRQPPGKGLEWIGMIWGDGTTDYNSALKSRVTISKDTSKNQFSLKLSSVTAADTAVYYCARGGYYYGTSRYFDYWGQGTLVTVS VL: DIQMTQSPSSLSASVGDRVTITCRASQDISNHLNWYQQKPGKAPKLLIYYISRFHSGVPSRFSGSGSGTDFTFTISSLQPEDIATYYCQQSKTLPYTFGQGTKLEIKRT"
